The experiment has as its target full-length (FL) human MAP9 (GFP::Human MAP9::strepII) (human) (UniProt Q49MG5).

For one substance, run frequency of FL KIF1A on MTs decorated with MAP9 results are on record in article doi:10.1101/2025.11.17.688911.

Chain of full-length (FL) human MAP9 (GFP::Human MAP9::strepII) (human) (Q49MG5 whole entry): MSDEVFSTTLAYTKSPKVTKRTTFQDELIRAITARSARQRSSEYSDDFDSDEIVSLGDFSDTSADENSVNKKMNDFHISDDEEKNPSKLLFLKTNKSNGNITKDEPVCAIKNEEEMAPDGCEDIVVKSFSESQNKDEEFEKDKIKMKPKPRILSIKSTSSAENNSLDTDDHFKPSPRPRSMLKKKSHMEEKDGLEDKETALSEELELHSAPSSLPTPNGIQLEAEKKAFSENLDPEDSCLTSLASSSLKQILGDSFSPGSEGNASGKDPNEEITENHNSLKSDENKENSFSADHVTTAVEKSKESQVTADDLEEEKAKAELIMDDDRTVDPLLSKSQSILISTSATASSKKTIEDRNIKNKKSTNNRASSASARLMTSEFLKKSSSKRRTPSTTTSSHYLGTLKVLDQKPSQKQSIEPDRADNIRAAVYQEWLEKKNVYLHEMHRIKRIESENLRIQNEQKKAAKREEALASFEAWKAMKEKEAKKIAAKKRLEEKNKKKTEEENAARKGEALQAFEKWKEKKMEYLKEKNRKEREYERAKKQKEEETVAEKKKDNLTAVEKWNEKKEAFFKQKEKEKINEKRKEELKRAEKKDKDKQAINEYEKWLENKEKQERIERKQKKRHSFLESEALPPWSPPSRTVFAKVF

“FL KIF1A (Human KIF1A::yBBR::strepII) (from UniProt Q12756 1-1690) (natural protein)” registered a run frequency of FL KIF1A on MTs decorated with MAP9 at low concentrations (<60 nM); slightly inhibited at higher concentrations of 2 fold.
